# B1: HDV Ribozyme (parent)
# chain: GGCCGGCAUGGUCCCAGCCUCCUCGCUGGCGCCGGCUGGGCAACAUUCCGAGGGGACCGUCCCCUCGGUAAUGGCGAAUGGGACCCA
# Variants of: B1
# Test: self-cleavage, relative activity (ratio to wild type); higher = more cleavage; co-transcriptional
row,Variant,self-cleavage
1,C14A C30A,0.104
2,C14A C30G,0
3,C13G A83C,0.222
4,C13U U23C,0.415
5,C14A G52C,0.782
6,C13G G38C,0.0504
7,C13A U23A,0.138
8,C13A U23C,0.271
9,C14U C26U,1.07
10,C14U A83C,0.499
11,C13U C15A,0.482
12,C14U G40U,0.724
13,C14U G40A,1.17
14,C14U G81U,0.729
15,C13U C75U,0.0314
16,C13U C75A,0.148
17,C15A G68U,0.309
18,C15G A83G,0.185
19,C14G G38C,0.142
20,C15A G28A,0.136
21,C14U G39U,0.895
22,C13G C86U,0.151
23,C13G G53C,0.123
24,C13U G17A,0.623

row,Variant,self-cleavage
1,C13U G17U,0.612
2,C15A C21G,0
3,C15A G38A,0.0978
4,C13G G29C,0.0415
5,C13G G17A,0.0652
6,C13U G34A,0.0875
7,C14A C86U,0.9
8,C14A C86G,0.378
9,C15A C49A,0.974
10,C14A C22A,0.0692
11,C15A C61U,0.752
12,C15A C86U,0.831
13,C15A C86G,0.748
14,C15A C26A,0.529
15,C15A C26G,0.415
16,C13G G39A,0.0332
17,C13U G35A,0.272
18,C13U G35C,0.166
19,C13U G35U,0.163
20,C14G G31C,0.145
21,C13G G76A,0
22,C15A G73U,0.095
23,C15A C24G,0.032
24,C13G C22A,0.0361

row,Variant,self-cleavage
1,C13G C22G,0.131
2,C15A U69G,0.492
3,C15A U69A,0.506
4,C15A G54U,0.585
5,C15A G54A,0.504
6,C13G C33G,0.0462
7,C13U G53A,0.77
8,C15A G29A,0.117
9,C14A G59A,0.762
10,C14G G29C,0.0665
11,C14G G29U,0.0396
12,C14A U37C,0.504
13,C14U A77G,1.31
14,C14U U69G,0.755
15,C14G G68C,0.383
16,C14G G68U,0.277
17,C13G C18G,0.138
18,C13G C18U,0.0875
19,C14G G74C,0.0639
20,C14G G74U,0.128
21,C13G U60G,0
22,C14A C44A,0.246
23,C14A G29A,0.115
24,C14A G29C,0.0302

row,Variant,self-cleavage
1,C15A C33A,0.256
2,C13G C49U,0
3,C15A G25A,0.0504
4,C15G A56G,0.712
5,C15A C84U,0.665
6,C14U C64G,1.24
7,C14G C66U,0.831
8,C13G G67U,0.101
9,C14G A51U,0.791
10,C14A C64A,0.793
11,C14G G53C,0.727
12,C14A G74U,0.281
13,C14A G74A,0.182
14,C14A C63G,0.935
15,C14A G54U,0.628
16,C13G U27C,0.262
17,C14G C36G,0.237
18,C13U G50U,0.642
19,C13G C24U,0.0504
20,C13G C24A,0.0594
21,C13G A45U,0.0346
22,C13A G76A,0.199
23,C13G C61G,0.0852
24,C15A G80A,0.831

row,Variant,self-cleavage
1,C13U A78U,0
2,C14A A56U,0.688
3,C13U G31U,0.185
4,C14A G28C,0.142
5,C13U U79C,0.103
6,C13U U79G,0.0519
7,C15A C58A,0.332
8,C14G C85U,1.31
9,C14G G67U,0.594
10,C14A G76U,1.27
11,C14G G73U,0.0755
12,C14U G55A,1.21
13,C13A G68U,0.125
14,C14G G34A,0
15,C14U U79G,0.89
16,C13U C86G,0.692
17,C15A A16C,0.415
18,C13G C63G,0.133
19,C13U G52U,0.394
20,C13U G52A,0.682
21,C15G A78U,0.375
22,C15G A78C,0
23,C13U A45C,0.365
24,C14U A51G,0.898

row,Variant,self-cleavage
1,C14U C32A,0.101
2,C13U C32A,0.172
3,C14A C15U,0.192
4,C14A A45C,0.199
5,C15A U37C,0.665
6,C14U U37A,0.151
7,C13U U69C,0.88
8,C13A U79A,0.119
9,C13U A83G,0.122
10,C13U A83U,0.185
11,C14A G25C,0.201
12,C14A G25U,0.0652
13,C14G C63A,0.755
14,C14G C30U,0.0396
15,C13U G76C,0.772
16,C14G G80C,0.0723
17,C14G U69A,0.767
18,C15A G76C,0.767
19,C13G C21U,0.141
20,C13G C21G,0.0723
21,C14A G50C,0.639
22,C14A G50A,0.736
23,C13G C62A,0.0692
24,C14G C32U,0.196

row,Variant,self-cleavage
1,C13G G82C,0.582
2,C13G G82U,0.0361
3,C15A G40C,0.0875
4,C15A G40U,0.352
5,C15A A83C,0.196
6,C14U U72A,0.745
7,C14U U72G,0.598
8,C14G G17A,0.123
9,C13G C36U,0.0369
10,C13G C36A,0.0449
11,C15A C75A,0.115
12,C14A C85A,0.623
13,C14G A87G,0.683
14,C15G A70G,0.554
15,C14G C41A,0.776
16,C13U G28C,0
17,C14G C24U,0.403
18,C13A U65G,0.208
19,C14A C66G,0.57
20,C14A C66A,0.578
21,C14U G29U,0.0739
22,C14U C84U,0.845
23,C15A G52U,0.844
